Here are results for eleven molecules from US20070134236A1 (Biogen, published 2007).

Where a chain is given by its changes, count along the chain named.

T1: human MCP-2 (human, UniProt P80075 24-99)
T1 construct: also called hMCP-2; huMCP-2
T1 sequence (looked up): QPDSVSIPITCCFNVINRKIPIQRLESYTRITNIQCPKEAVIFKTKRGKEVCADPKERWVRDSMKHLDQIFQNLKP

T2: human fractalkine (human, UniProt P78423 25-100, limits assumed)
T2 sequence (looked up): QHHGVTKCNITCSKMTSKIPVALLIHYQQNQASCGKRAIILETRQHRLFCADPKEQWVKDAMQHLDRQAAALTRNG

T3: human DC-CK (human, UniProt P55774 21-89)
T3 sequence (looked up): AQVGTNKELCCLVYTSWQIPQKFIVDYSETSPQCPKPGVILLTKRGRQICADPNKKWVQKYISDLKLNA

B1: humanized 11K2 H1-L2 (antibody, human IgG1, V domains shown)
VH: QVQLVQSGAEVKKPGSSVKVSCKASGLNIKDTYMHWVRQAPGQGLEWIGRIDPANGNTKFDPKFQGRATITADTSTSTAYMELSSLRSEDTAVYYCARGVFGFFDYWGQGTTVTVSS
VL: DIQMTQSPSSLSASVGDRVTITCKATEDIYNRLAWYQQKPGKAPKLLISGATSLETGVPSRFSGSGSGTDYTLTISSLQPEDFATYYCQQFWSAPYTFGGGTKVEIKR
notes: human IgG1 kappa
B2: Fab fragment of chimeric 11K2 (Fab, V domains shown)
VH: EVQLQQSGAELVKAGASVKLSCPASGLNIKDTYMHWVKQRPEQGLEWIGRIDPANGNTKFDPKFQGKATITADTSSNTAYLQLSSLTSEDTAVYYCARGVFGFFDYWGQGTTLTVSS
VL: DIQMTQSSSSFSVSLGDRVTITCKATEDIYNRLAWYQQKPGSAPRLLISGATSLETGVPSRFSGSGSGKDYTLSITSLQTEDVATYYCQQFWSAPYTFGGGTKLEIKR
notes: also called Ch11K2
B3: Fab fragment of humanized 11K2 H1L1 (Fab, V domains shown)
VH: B1 VH
VL: B1 VL with T69K
B4: Fab fragment of humanized 11K2 H1L2 (Fab, V domains shown)
VH: B1 VH
VL: B1 VL
B5: Fab fragment of humanized 11K2 H2L2 (Fab, V domains shown)
VH: B1 VH with N28T, K30S, I48M, A68V
VL: B1 VL
B6: Fab fragment of humanized 11K2 H2L1 (Fab, V domains shown)
VH: B1 VH with N28T, K30S, I48M, A68V
VL: B1 VL with T69K
B7: monoclonal antibody 6I5 (antibody, mouse IgG1, V domains shown)
VH: B2 VH
VL: DIQMTQSSSSFSVSLGDRVTITCKATEDIYNRLAWYQQKPGSAPRLLISGATSLETGVPSRFSGSGSGKDYTLSITSLQTEDVATYYCQQFWSAPYTFGGGTKLEIK
notes: mouse IgG1; also called 6I5.1; 615
B8: monoclonal antibody 7H1 (antibody, mouse IgG1, V domains shown)
VH: B2 VH
VL: B7 VL
notes: mouse IgG1; also called 7H1.1
B9: monoclonal antibody 5A13 (antibody, mouse IgG1, V domains shown)
VH: B2 VH
VL: B7 VL
notes: mouse IgG1; also called 5A13.1
B10: monoclonal antibody 6D21 (antibody, mouse IgG1, V domains shown)
VH: B2 VH
VL: B7 VL
notes: mouse IgG1; also called 6D21.1
B11: monoclonal antibody 4N4 (antibody, mouse IgG1, V domains shown)
VH: B2 VH
VL: B7 VL
notes: mouse IgG1; also called 4N4.1

The first test has as its target T1, human MCP-2. The test is described as follows: ELISA on immobilised MCP-2, absorbance 450 nm. On the technique in general: In an ELISA, binding on a coated surface is turned into a signal by an enzyme label.
On to B1, for which the “EC50 (read off the curve)” value is around 0.3 µg/mL.

A further test has as its target T4, human MCP-1 (human, UniProt P13500 24-99).
T4 construct: also called hMCP-1; huMCP-1
The test is described as follows: KinExA, in solution, Fab. Here is the method:
(§1) 1 ml of MCP-1 at a concentration of 10 μg/ml in NaHCO₃ was added to an amount of beads equivalent to 1 ml of the original slurry. The beads were rocked overnight at 4° C. Beads were spun down and washed once with 1M Tris, pH 8.0, then resuspended in 1M Tris pH 8.0 with 1% BSA, 0.02% azide. The beads were rocked at room temperature for one hour then stored at 4° C. in this buffer for the duration of the experiments.
(§2) The KinExA 3000 measures protein-protein interaction in solution, and is ideally suited for measuring affinities of antibodies to antigens. In the typical experiment, antigen (MCP) is immobilized on a bead, antibody is flowed over a column of these beads at a given concentration, and the antibody that binds to the beads is detected using a fluorescent secondary. Antibody at a fixed concentration is then incubated with different concentrations of antigen in solution and the amount of free antibody is measured by flowing the mixture over the bead column quickly enough that no re-equilibration occurs between solution and solid phase. The amount of antibody remaining free is plotted against the concentration of antigen added and the data are fit to a quadratic equation to determine the affinity of the interaction in solution.
(§3) In these experiments, the only difference to the typical experiment described above is that instead of using intact antibody, a Fab fragment of 11K2 was used. Earlier KimExA experiments using the intact murine 11K2 mAb binding to MCP-1 and MCP-2 gave biphasic curves that the software could not interpret. This may be due to these proteins acting as dimers, so to eliminate the dimer/dimer interaction we generated Fab fragments. The binding of the 11K2 Fab fragments to MCP-1 and MCP-2 produced curves that the KinExA software could fit.
On the technique in general: Kinetic exclusion samples the free partner from a solution-phase mixture.
Take B2: the Kd stood at 0.0196 nM.

With B3, the Kd came out at 0.0364 nM.

As for B4, the Kd turned out to be 0.0623 nM.

B5: the Kd was 0.0775 nM.

With B6, the equilibrium dissociation constant (Kd) amounted to 0.064 nM.

The target of another test is T1, human MCP-2. The test is described as follows: KinExA, in solution, Fab. Here is the method:
as §1, §2, §3
B2: the Kd stood at 0.226 nM.

On to B3, for which the Kd was 0.725 nM.

As for B4, the Kd was 0.712 nM.

Turning to B5, the Kd stood at 3.2 nM.

As for B6, the Kd was determined as 0.94 nM.

For a further test, the target named is T5, human MCP-3 (human, UniProt P80098 24-99).
T5 construct: also called hMCP-3
As to the kind of experiment: ELISA.
B1: the binding result was “no binding”.

For another test, the target named is T4, human MCP-1. As to the kind of experiment: ELISA on plate-coated human MCP-1, anti-human IgG-HRP; y axis unlabelled, OD 405 nm per paragraph 382. Here is the method:
Binding specificities of chimeric 11K2 and the four versions of humanized 11K2 (H1-L1, H1-L2, H2-L1, and H2-L2) were determined by ELISA, according to the protocol described in Example 1.
ELISA plates (Corning, Inc. Cat#3369) were coated with 50 ng MCP-1 per well overnight at 4° C. Plates were washed then blocked with PBS/5% milk for 1.5 hrs at 25° C. Another wash was followed by incubation with the 11K2 mAbs (or 3G9 isotype control) at the concentrations indicated for 1 hr at 25° C. After washing, the plates were incubated with secondary antibody (anti-human IgG-HRP, Jackson Immunoresearch Cat#109-036-088) for 1 hr at 25° C. Plates were then washed and developed using the ABTS Peroxidase Substrate Kit (Vector Laboratories Cat#SK-4500). OD (405 nm) values were plotted as a function of 11K2 mAb concentration.
Take B1: the “EC50 (read off the curve)” value is around 0.02 µg/mL.

A further test concerns the target T6, human MCP-4 (human, UniProt Q99616 24-98, limits assumed).
T6 construct: also called hMCP-4
The test is described as follows: ELISA, purified mAb. As to the method:
(§4) ELISA specificity assays were performed using purified monoclonal antibodies to confirm the binding specificities of the supernatant MCP-specific monoclonal antibodies described above. Antibodies were purified by Protein A affinity column chromatography, according to standard methods known in the art.
(§5) ELISA was performed as previously described in Example 1. Briefly, MaxiSorp 384 well plates were coated with 15-20 μl antigen in PBS. Recombinant purified human antigens included: MCP-1, MCP-2, MCP-3, MCP-4, IL-8, eotaxin, murine MCP-1 (JE), murine MCP-3, murine MCP-5, and rat MCP-1. All antigens, including MCP-3, were immobilized. Plates were washed and purified monoclonal antibody (10 μg/ml) was added to each well and incubated for 1 hour at room temperature. Plates were washed and wells were incubated with 20 μl/well of a 1:25,000 dilution of goat anti-mouse IgG peroxidase conjugate (Jackson Catalog Number 515-036-003). Plates were incubated for 1 hour at room temperature, washed, and 20 μl/well of substrate (, tetramethylbenzidine, Jackson, Catalog Number 515-036-062) was added. Reaction was allowed to proceed and stopped by addition of 20 μl/well of 2M H₂SO₄. Antibodies 1A1 bound specifically to hMCP-1, hMCP-2, hMCP-3, and mMCP-1. Antibodies 11K2, 4N4, 5A13, 6D21, 615, and 7H1 bound specifically to hMCP-1, hMCP-2, hMCP-3, mMCP-1, mMCP-3, and mMCP-5.
Take B7: the binding result is listed as “no binding (tested: 10 µg/ml)”.

With B8, the binding result is on record as “no binding (tested: 10 µg/ml)”.

As to B9, the binding result was “no binding (tested: 10 µg/ml)”.

In the case of B10, the binding result was “no binding (tested: 10 µg/ml)”.

Regarding B11, the binding result is listed as “no binding (tested: 10 µg/ml)”.

In another test the target is T7, human IL-8 (human, UniProt P10145 28-99, limits assumed).
T7 construct: also called hIL8
As to the kind of experiment: ELISA, purified mAb. Here is the method:
as §4, §5
As to B7, the binding result is “no binding (tested: 10 µg/ml)”.

On to B8, for which the binding result was “no binding (tested: 10 µg/ml)”.

Turning to B9, the binding result is reported as “no binding (tested: 10 µg/ml)”.

For B10, the binding result is “no binding (tested: 10 µg/ml)”.

On to B11, for which the binding result was “no binding (tested: 10 µg/ml)”.

In the next test the target is T8, human eotaxin (human, UniProt P51671 24-97).
T8 construct: also called hEotaxin
As to the kind of experiment: ELISA, purified mAb. Here is the method:
as §4, §5
Turning to B7, the binding result was “no binding (tested: 10 µg/ml)”.

For B8, the binding result is reported as “no binding (tested: 10 µg/ml)”.

As to B9, the binding result is listed as “no binding (tested: 10 µg/ml)”.

With B10, the binding result is reported as “no binding (tested: 10 µg/ml)”.

As for B11, the binding result is “no binding (tested: 10 µg/ml)”.

For the next test, the target named is T2, human fractalkine. The test is described as follows: ELISA, supernatant. Here is the method:
(§6) MaxiSorp 384 well plates were coated with 15-20 μl antigen in PBS. Recombinant purified human antigens included: MCP-1, MCP-2, MCP-3, MCP-4, IL-8, eotaxin, fractalkine, Gcp-2, DC-CK (Gcp-2 and DC-CK are also chemokines). Plates were incubated with antigen for 2 hours at 37° C. or overnight at 4° C. Non-specific sites were blocked with 80 μl/well of 1% BSA/PBS for 1 hour at room temperature. Plates were washed and 15 μl of hybridoma supernatant was added to each well and incubated for 1 hour at room temperature. Plates were washed and wells were incubated with 20 μl/well of a 1:25 000 dilution of goat anti-mouse IgG peroxidase conjugate (Jackson Catalog Number 515-036-003). Plates were incubated for 1 hour at room temperature, washed, and 20 μl/well of substrate (TMB, tetramethylbenzidine, Jackson, Catalog Number 515-036-062) was added. Reaction was allowed to proceed and stopped by addition of 20 μl/well of 2M H₂SO₄. Reactive clones were picked for further analysis. Isotyping of hybridoma supernatants was performed by antigen-dependent ELISA. Briefly, wells were coated with 50 μl of human MCP-1 (5 μg/ml) for 1 hour at 37° C. Wells were washed 4 times and blocked with PBS/1% BSA. Isotyping of hybridoma supernatants was then performed using a mouse immunoglobulin screening/isotyping kit (Zymed Laboratories, San Francisco, —CA) as recommended by the manufacturer.
For the molecule B7, the binding result is reported as “no binding”.

On to B8, for which the binding result is reported as “no binding”.

For B9, the binding result was “no binding”.

Turning to B10, the binding result is “no binding”.

Regarding B11, the binding result is “no binding”.

The target in another test is T3, human DC-CK. As to the kind of experiment: ELISA, supernatant. Here is the method: as §6
For B7, the binding result was “no binding”.

Regarding B8, the binding result was “no binding”.

For B9, the binding result was “no binding”.

On to B10, for which the binding result is reported as “no binding”.

On to B11, for which the binding result is “no binding”.

A further test deals with human Gcp-2 (human, UniProt P80162 38-114, limits assumed). As to the kind of experiment: ELISA, supernatant. As to the method: as §6
As for B7, the binding result is “no binding”.

Turning to B8, the binding result is on record as “no binding”.

B9: the binding result is recorded as “no binding”.

For B10, the binding result was “no binding”.

Consider B11, for which the binding result was “no binding”.

The term EC50 (read off the curve) denotes the concentration at which the effect is half-maximal. Low values mean an effect from little substance, high ones a need for much substance. The term Kd denotes the equilibrium constant for the complex coming apart.
